Measured values as given in the nanobody polyreactivity screen of Harvey et al. (2022).

assay: yeast display, Sf9 membrane polyspecificity reagent, FACS + sequencing; frameworks hold sequencing errors
How it was run: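 In a synthetic yeast display library (Saccharomyces cerevisiae BJ5465), nanobody expression was induced with galactose for 36–48 hours. FACS gates were set low and high (top ~1%) using anti-HA fluorescence for expression and streptavidin fluorescence for binding of the Sf9 membrane reagent. Each polyreactivity label is drawn from the gate of origin.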

Sequence	polyreactivity (PSR sort gate)
QDQRVESGGGIDQAGGSLRLSCAASGSTVDFNAMGWYRQAPGTERELVAAITYSGGSTYYADSVKGRFTISRDNAKNTVYLQMNSLKPQDTAVYYCAAEDVYPGSIDMDYWGQGTQVSVSS	low polyreactivity
QDQVVESGGGLVQAGGSVRLSCADSGSIFWRNAMGWYRQAPGKEREWVAAITSGGTTNYADSVKGRFTLSRDNAKNTVYLQLNTQKPEVTAGDYCATGASDLRRYDHPHSDVDYWGQGTQVTVSA	low polyreactivity
QEHLVESGGGLVQAGGTLRLSCAASGGTFYVNDMGWYRQPPGKESELVATITYSGTSTYYADSVTGSFTISRDNAKNTVYLQMNSLKPEDTAVYYGATDVLLYLEPVNLDYCGQGTQVTVSS	low polyreactivity
QEQLEESGGGVVQAGGSLRLSCAAYGSIFYAYSMGWYRQAPGKEREFVAASSKRGGSTYYSDSVKGRFTISRDNEKNTVYLQMNSLKPEDTAVYYCYVGYGYWRGVKQSYDRFDYWGQGTQVTVSS	high polyreactivity
QEQLLESGGGLVQAGGSLRLSCAASGYISSHIMSWYRQAPGKEREFVDTITDGGTTNYADSVKGRFTISRDNAKNTVYLQMNSLKPEDTAVYYCAAVATYSYHFGYWGHGTQVTVSS	high polyreactivity
QEQLQDSGGGLVQAGGSLRLSCAASGYISSLAAMGWYRQAPGKERDLVAGNDLGTITNYADSVKGRLTISRDNAKNNVYLQMNSLKPEDTEVYYCAKYRWYGVYWGQGTHVTVSS	low polyreactivity
QEQLQESAGGLVQACGSQRLSCAASGSISEGQDMGSYRRAPGKEREFVAGIAPGATTYYADSVKGRFTISRDNAKKTVYRQMNSLKAEDTAVYYCAARSVTETDHDYWGQGTQVTVSS	low polyreactivity
QEQLQESGGGLVHAGGSLRLSCAASGSISQAWYMGWYRQAPGKERELVAAINGGAITYYADSVKGRFSISRDNAKNTVYLPMNSLTPEDTAVYYCAVDQYSEAYYDYWGQGTQATVSS	high polyreactivity
QEQLQESGGGLVKAGGSLRLSCAASGNISNHNDMGWYRQAPGKEREFVAGITAGGITNYADSVKGRFTISRDNAKNTVYLQMNSLKPEDTAVYYCAAYPDYAKSYGYWGQGTQATVSS	low polyreactivity
QEQLQESGGGLVQAGGSLRLSCAASGTITVLYKMGWFRQAPGKEREFVASINYGTSTYYADSVKGRFTVSRDSAKNTVYLQMNSLKPEDTAVYYCAAAYRWQDVYRYWGQGTQVTVSS	low polyreactivity
QEQLQESGGGQVQAGGSLLLSCAASGNIIRYYYMGWYRQAPGKERELVAAITYGTSTNYADSVKGRFTISRDNAINTVYLQMNSLKPEDTAVYYCAVDVNYGDPLDNWGQGTQVTVSS	high polyreactivity
QEQLVESGGGLVQAGGSLRLSCAASGFIFPGYTMGWYRQAPGKERELVAAISRGSSTFYADSVKGRFTISRDNAKNTVYLQMNSLKPEDTAFYYCNTRVYAITLYDYWGQGTQVTVSS	low polyreactivity
QEQLVESVGGLVQARGSLRLSGAASGYTFKYNALGWYRPAPGKERELVAAITSGGSTNYADSVKGRFTISRDNAKNTVYLQMNSLKPEDTAVYYCAAAQPRTNAYRVGSWGQGTQVTVSS	high polyreactivity
QEQQQESGGGLVQAGGSLRLSCSSSGSIILFYTMGWYRHAPVKERECVAGITLGTTTYNADSVKGRFTISRDNVKISVYLQMNSLKPEDTAVDYCAVAVGHYTEFWYWGQGTQVTMSS	high polyreactivity
QFHHVESGGGLVQAGCSLRLSCGASGLTSAIYVMGLYRQAPGKEREFVADITWNAGSTYYADSVQGRFTISRDNAKNTVYVEMKSLKPEDTAVYYCNAYIVSGFYEYDFWGQGTQVTVSS	high polyreactivity
QFHLLESGGRLDQAGGSLRLSCAASGIIFRGNAMGWYIQAPGKERELVAAISSGGSTYYADTVKGSFTISRDNAKNTVYLKMNCLKPEDTAVYYCNARWYFWGTLYGSWGQGTQVTVSS	high polyreactivity
QFHLVDSGGGLVQAGGRLRLSCPASGGICYQYAMGWYRQAPGKEREFVAAISRRGGSTYYADSVKGRFTISRDNAKNTVYLQMNSLKPEDTAVYYCAAAPSTRGGYQQMDSWGQGTQVTVSS	high polyreactivity
QFHLVESGGGLVQAGGSLRLSCSASGLTFYQNSLGWSRQAPGKEMELVAAIRWGGGSTYYADSVKGRFTISRDNAKNTVYLQMNCLKPVDTAVYYCAAEYYGWPYDYWGQGTQVTVSS	high polyreactivity
QFHLVESGRGLVQAGGSLRLSCAASGRIFCVNAMGWYRQAPGKERELVADISSGGSTNYADSVKGRFTISRDNAKNTVYLQMNSLKPEDTAFYYCNARFRFRYKFPSRNSWGQGTLVTVSS	high polyreactivity
QFQHVESGGCLVQAGGSLRLSSAASGYMFYWYDMGWYRQAPGKERELVAVITSSGLSTYYADSVKGRFTISRDNAKNTVYLQMNSLKPEDTAVYYCNKANTQYSYYFYDYWGQGTQVTVSS	low polyreactivity
QFQIVDSVRGLVQAGGSLRLSCAASGITFDFYAIGWYRQAPGKERELVAAISYSGTSTSYADSVKGRFTISRDNAKNTVYLQMNSLKAEDTAVYYCNARIGWTHSYYELDYWGQGTQVTVSS	low polyreactivity
QFQLEESGGGIVQAGGSLRLSCAASGSTFYYNAMGWYRQAPGKERDLVAAITGSGTGTNYADSVKGRFTISRDNAKITVYLQMNSLKTEDTAVYYCAADYVWRGDPINSYLSWYVYWGQGTQVTVSS	low polyreactivity

Sequence	polyreactivity (PSR sort gate)
QFQLEESGGGLVQAGGSLRLSCAASGFTFFTYAMGWYRQAPGKERELVAAITTGGSTNYADSVKGRFTISRDNAKNTVYLQMNSLKPEDTAVYYCAVYGYVYGSAVQYDYWGQGTQVTVSS	low polyreactivity
QFQLEESGGGLVQAGGSLRLSCAASGSIFKGYTMGWYRQAPRKVREFVASMSRRGGSTYYADSVKGRFTISRDYAKNTVYLQMNSLKPEDTAVYYCAKDYGKAYDDWGQGTQVTVSS	high polyreactivity
QFQLEESGGGLVQAGGSLRLSCADSGIIFFFYAMGWYRQAPGKERELVAAISDDGVSTDYADSVKGRFTISRDNAKNTVYLQMNSLKPEDTAVYYCAAKTERVYPWFSFGYWGQGTQVTVSS	low polyreactivity
QFQLVEAGGGLVQAGGSLRLSCAASGRIFTYYAMGWYSQAPGKERELVAAITGSGGSTYYADSVKGRFTISRDNAKTTVYLQMISLKPEDTAVYYCARTDRRLGAHQGDYWGQGTQVTVSS	high polyreactivity
QFQLVESGGGLDQAGGSLRLSCAASGLTFYGYAMGWYRQAPGKERELVAAITWGGGSTYYADSVKGRFTISRDKAKNTVYLQMNSLKPEETEVYYCNADYYLPAIRYDYWGQGTKVTVSS	low polyreactivity
QFQLVESGGGLDQAGGSLRLSCAASGRIFDGYVMGWYRQAPGKDRELVAAISSSGGRTYYADSVKGRFTISRDNAKNTVYLQMNCLKPDDTAVYYCAARYGRYRSVDYWGQGTQVTVSS	high polyreactivity
QFQLVESGGGLDQAGGSLRLSCAASGRTFCNNAMGSYRQAAGKETELFAAISVLGGSTYYADSVKGRFTISRDNAKYTVFLQMNSLKPEDTAVYYCATRSRGWIAPPWQGSDGLYYWGQGTQVTVSS	low polyreactivity
QFQLVESGGGLFQAGGSLRLICAASGSNFGGNTMSWYRHAPGKERDLVAAISRSGTRTYYADSVKGRFTISRDTAKNTVYLQMKSLKPVATAVYYCNAKKVLPPPYDYWGQGTQVTVST	high polyreactivity
QFQLVESGGGLVHAGGSLRLSCASSGSIFVVYAMGWYRQAPGKEREFVASIRTGGSTNYADSVKGRFTISRDNAKNTVYLQMNSLKPEDTAVYYCAAASWNSNRHYYVARYYYWGQGTQVTVSS	high polyreactivity
QFQLVESGGGLVQAGASLRLSCAASGNIFPAYAMGWYRQAPGKERELVATISRRGGGTYYADSVKGRFTISRDNAKNTVYLQMNSLKQEDTAVYYCNVAGWTSAYDYWGQGTQVTVSS	low polyreactivity
QFQLVESGGGLVQAGASLRLSSAASGSTFVFYAMGWYRQAPGKERELVATISTGVSTYADSVKGRFTISRDNAKNTVYLQMNSLKPEDTAVYYCAADSLFGHYDYSGQGTQVTVSS	low polyreactivity
QFQLVESGGGLVQAGGILRLSCAASGSTFCVYAMGWYRQAPGKERELVATINSGGSTNYADSVKGRFTISRDNAKNTVYLQMNSLKPEDTAVYYCAAGPFWQDFYVYEYDYWGQGTQVTVSS	low polyreactivity
QFQLVESGGGLVQAGGSLLLSCAASGSIFAPYDMGWYRQEPGKERELVAAISSSGGSTYYEDSVKGRFTISRDNSKNTVYLHMNSQKPEDTAVYYCDPEPYHGLYDYSGQGTQVTVSS	low polyreactivity
QFQLVESGGGLVQAGGSLRISCAASGSIFLFYAMGWYRKAPGKERELVAAIDQSGGSTYYADSVKGRFTFSRDNAKKTVYFQMNSLKPEDTAVYYSAAVHSLYWLGDDTYGYDYWGQGTQVTVSS	low polyreactivity
QFQLVESGGGLVQAGGSLRLSCAASALIFTPNAMGSYIPAPGKESELVAAISSSGRTSYADSVKGRFTISRDNAKNAVYLQMNSLKPEDTAVYYSNATWRWTRRGYVYWGQGTQVTLSS	low polyreactivity
QFQLVESGGGLVQAGGSLRLSCAASGFIDNTMGWYRQAPGKQRELVATISWSDGSTYYADSVKGRFTISRDNAKITVYLLMNSLKPEDTAVYYCAATTDALVGRPRYDYWGQGTQVTVSS	low polyreactivity
QFQLVESGGGLVQAGGSLRLSCAASGFIFGYNAMGWYRQAPGKERELVAAINWSGDITYYADSVKGRFTISRDNAKNTVYLQMNSLKPEDTAVYYCAADDYYIPSSWDFDYWGQGTQVTVSS	low polyreactivity
QFQLVESGGGLVQAGGSLRLSCAASGFIFYRNAMGGYRQAPGKERELVAGITSGGRPYYADSVKGRFTISRDNAKNTVYLQMNCLKPEDTGVYYCAARRSRPTYYSTGVNYWGQGTQVTVSS	high polyreactivity
QFQLVESGGGLVQAGGSLRLSCAASGFIIEYNTMGWYRQAPGKERELVAAISFIGGRTYYADSVKGRFTISRDNAKNTVYLQMNSMKPEDNAVYYCKTRDGGYYCGARRVLYYYWGQGTQVTLSS	high polyreactivity
QFQLVESGGGLVQAGGSLRLSCAASGFTFIKYAMGWYRQAPGKEREFVATISWNGGNTYYADSVKGRFTISRDNAKNTVYLQMNSLKPEDTAVYYCAARRRAFGSTYNYWGQGTQVTVSS	high polyreactivity
QFQLVESGGGLVQAGGSLRLSCAASGFTFPRYAMGWYRQAPGKERELVAAITSGDRTYYADSVKGRFTISRDNAKNTVYLQMNSLKPEDTAVYYCAKSSPRKSSQKHSFYEYNYWGQGTQVSVSS	high polyreactivity
